The test system of assay [1] is tracheal smooth muscle (TSM) of mouse tracheal rings. Nature of the assay: ISO-induced relaxation of CCh-contracted tracheal rings. The note with it: in either presence or absence of rFIZZ1. The class given is cell-based. The method, then: (§1) Experimental animals were sacrificed by CO2 asphyxiation. Tracheas were surgically excised and cleaned of adherent connective tissue. Each trachea was sectioned into rings 3-4 mm in length and cultured in DMEM containing 1.0 M HEPES, 1.0 M NaOH, 5% of heat-inactivated FBS (Hy-Clone, Logan, Utah), 0.2M glutamine, 1.0 M CaCl2, 2.5 μg/ml fungizone, 5 μg/mL insulin, 100 U/mL penicillin and 100 μg/mL streptomycin) (DMEM-5%) for 24 hours. For in vitro experiments, the tracheal rings were cultured in DMEM in the absence and presence of either 10 or 100 nM recombinant FIZZ1 (Leinco Technologies, USA) for 24 hours.
(§2) Trachea were supported longitudinally by a plexiglas rod with a stainless steel pin into the base of a double-jacketed, glass organ bath filled with 10 mL of Krebs-Henseleit (K-H) solution (37° C.) of the following composition: 118 mM NaCl; 4.7 mM KCl; 1.2 mM KH2PO4; 11.1 mM Dextrose; 1.2 mM MgSO4; 2.8 mM CaCl2; and 25 mM NaHCO3. The solution was maintained at a pH of 7.40-7.45 and continuously gassed with a mixture of 5% CO2 and […] for the duration of each experiment. […] Initial tensions of TSM were set at approximately 0.5 g and maintained for 1 hour. Agonists were given after a steady state of tension had been reached.
[CCh]-response curves at the doses ranging from 3×10^−8 to 10^−5 M were completed in tracheal rings in absence and presence of either FIZZ1 or LPS (0.1 ng/mL). Concentrations of agonist were increased only when force responses to the previous concentration had stabilized. To examine TSM relaxant responses to isoprenaline (ISO), tracheal rings were first contracted by an addition of 1.0 μM CCh (Sigma, USA). Once the contraction had stabilized, ISO (Sigma, USA) was introduced into each bath at increasing concentrations (3×10^−8-10^−5 M). […]
(§3) At the end of each force measurement experiment, tracheas were blotted on a gauze pad and weighted. Results were calculated as milligram of tension per milligram of TSM weight (mg/mg) and expressed as an individual percentage (%) of 10 μM CCh- or 200 μM papaverine-induced tension response in PBS-treated trachea. […]

Assay [2] deals with BAL cells. Nature of the assay: Counts of BAL cells in intranasally challenged mice. The settings on record: intranasal once a day×5 days, 100 nM rFIZZ1 or 0.1 ng/ml LPS; vs PBS-treated mice. The class given is in vivo, mouse. The method, then:
(§4) For some experiments, ex vivo TSM tensions of fresh tracheal rings and BAL cell counts were measured at 24 hours after the last treatment of mice receiving an intranasal dose of either PBS, 0.1 ng/m: LPS or 100 nM rFIZZ1 (once a day×5 days).
(§5) PBS- and OA-treated mice were sacrificed and their airways lavaged once with 1.0 mL of PBS via tracheal cannulation. An equal volume of BAL from each mouse was collected and centrifuged (1200 rpm, 5 min). Total BAL cells were counted using a hemocytometer. BAL cells ([…]) collected from each sample were applied to a glass slide using a cytospin (800 rpm, 8 min) and then the slide was stained with Hema 3 Stain Set (Fisher Scientific) for the differential count of cells. The relative proportion of different cells counted from 300 cells/slide was factored to the number of total BAL cells collected in each group.

The test system of assay [3] is airway epithelium of cultured trachea. Nature of the assay: Histological examination of tracheal rings and airway epithelium. It counts as cell-based, mouse. The settings on record: cultured overnight with FIZZ1 100 nM or LPS 0.1 ng/mL. The method, then: Histological examination of the structure of the airway and the status of the airway epithelial layer was performed in whole/sectional fresh trachea and as well as trachea cultured overnight with and without 100 nM FIZZ1. To understand the role of airway epithelium in regulating contractility of TSM, we measured the contractile response of tracheal rings after the epithelium was mechanically removed. Briefly, airway epithelial cells were removed by gently rubbing the intraluminal surface with polyethylene tubing (Becton Dickinson & Company, MD USA) connected to a Precision Glide needle (30G1/2) followed by perfusion with 1.0 ml air bubbles and then 1.0 ml K-H solution (re). All of the experimental tracheas were stained with H & E solution (CAT hematoxylin, Edgar Degas Eosin Working Solution, Biocare Medical, Concord, Calif.) and photographed under a light microscope at ×4.0 and ×20 magnification. Tracheal morphometric analysis was performed using a computer-based image analysis system consisting of a Nikon Eclipse E800 microscope (Melville, N.Y. USA) with a SPOT RT Slider camera (Diagnostic Instruments, Inc., Sterling Heights, Mich. USA).

Assay [4] has as its system mouse tracheal epithelium cells (MTEC). Nature of the assay: Nitrite in MTEC supernatants, Griess reaction. It counts as cell-based. The settings on record: PBS, 0.1 ng/mL LPS or 100 nM rFIZZ1; any measured time point; N=3. The method, then: MTEC culture was performed by following the protocol of You et al. (“Growth and differentiation of mouse tracheal epithelial cells: selection of a proliferative population,” Am J Physiol Lung Cell Mol Physiol, 2002, 283:L 1315-1321) with minor modification. Briefly, tracheas were incubated in 1.5 mg/mL pronase (Roche Molecular Biochemicals) for 18 h at 4° C. Cells were treated with 0.5 mg/mL crude pancreatic DNase I (Sigma-Aldrich) on ice for 5 min. After incubation in tissue culture plates for 3-4 h in 5% CO2 at 37° C., nonadherent cells were incubated in a plate coated with type I rat tail collagen (BD Biosciences) in modified BEBM (Lonza, Md. USA) containing 10 μg/ml insulin, 5 μg/ml transferrin, 25 ng/ml epidermal growth factor, 5 μg/ml epinephrine and 30 μg/ml bovine pituitary extract, 0.5 nM Hydrocortisone, 25 ng/ml hEGF, 15 nM Triiodothyronine, 0.25 μg/ml Gentamicin/amphotericin-B and 0.01 μM retinoic acid in 5% CO2 at 37° C. […]
Nitric oxide (NO) was examined by measuring an end product, nitrite, using the Griess reaction (Xu et al., “Arginase and autoimmune inflammation in the central nervous system,” Immunology, 2003; 110:141-148). […] Absorbance was read at 540 nm in an automated microplate reader. […]
(In general: Griess reagent forms a coloured azo dye with nitrite.)

The subject of assay [5] is TSM of fresh tracheal rings. Nature of the assay: Force response of fresh tracheas from intranasally challenged mice. The note with it: intranasal once a day×5 days, 100 nM rFIZZ1 or 0.1 ng/ml LPS; 24 hours after last treatment; PBS 100.00±14.63; N=5. The class given is in vivo, mouse. The method, then: as §4, §2
(§6) At the end of each force measurement experiment, tracheas were blotted on a gauze pad and weighted. Results were calculated as milligram of tension per milligram of TSM weight (mg/mg) and expressed as an individual percentage (%) of 10 μM CCh- or 200 μM papaverine-induced tension response in PBS-treated trachea. For the control group, CCh (papaverine)-mediated responses were normalized to the mean value of the maximal responses.

For assay [6], the system named is tracheal smooth muscle (TSM) of mouse tracheal rings. Kind of assay: CCh-evoked force generation in cultured tracheal rings. It counts as cell-based. The settings on record: FIG. 4B, 100 nM heat-inactivated or native rFIZZ1, 0.1 ng/mL LPS, PBS 100±4.82, n=6. The method, then: as §1, §2
[CCh]-response curves at the doses ranging from 3×10^−8 to 10^−5 M were completed in tracheal rings in absence and presence of either FIZZ1 or LPS (0.1 ng/mL). Concentrations of agonist were increased only when force responses to the previous concentration had stabilized. To examine TSM relaxant responses to isoprenaline (ISO), tracheal rings were first contracted by an addition of 1.0 μM CCh (Sigma, USA). Once the contraction had stabilized, ISO (Sigma, USA) was introduced into each bath at increasing concentrations (3×10^−8-10^−5 M). […] In an additional experiment, the effect of FIZZ1 protein on the CCh-mediated force response was verified using 100 nM heat-inactivated FIZZ1 (natural and recombinant FIZZ1 solution heated at 70° C. for 60 min). Their dose-response curves were obtained as above. Fresh drug solutions such as CCh and ISO were made up on the day of the experiment. Doses of the above agents refer to the final bath concentration.
as §6

The next assay has as its system FIZZ1 mRNA. Nature of the assay: FIZZ1 mRNA expression in trachea by transcriptional profiling. The class given is in vivo, mouse. The note with it: OA/OA-treated mice over PBS/PBS- or OA/PBS-treated mice. The method, then:
(§7) Animals were divided into three groups including phosphate buffered saline (PBS)-sensitized and -challenged (PBS/PBS), OA-sensitized and PBS-challenged (OA/PBS), and OA-sensitized and -challenged mice (OA/OA). Mice were intraperitoneally injected with an equivalent volume (100 μL) of PBS or OA (20 μg) with 2.25 mg Al(OH)3 in PBS on day 0 and 14. From day 25 to 34, mice were challenged with an aerosol of PBS or OA (5% in PBS) for 30 min once a day for 10 consecutive days.
Three (3) groups of mice were analyzed using PBS/PBS, OA/PBS and OA/OA, with 18 animals per group. Tracheal rings from 6 animals per group were combined as replicates, to produce total RNA. […] RNA was quantified using the Nanoprop ND-1000 spectrophotometer. […] The Ovation kit utilizes the Ribo-SPIA process to linearly amplify and label, limiting amounts mRNA in a three-step process resulting in microgram quantities (Kum et al, “Novel Isothermal, Linear Nucleic Acid Amplification Systems for Highly Multiplexed Applications,” Clinical Chemistry, 2005; 51:1973-1981). Approximately 1.5 μg of purified and fragmented biotinylated cRNA, together with controls for quantitating the amount of each transcript, was hybridized to the mouse gene chip array, MOE 430—2.0 (Affymetrix) for 16-18 hours. […] Resulting signals were normalized and quantified using Gene Logic's MAS 5.0 software.

The next assay has as its system FIZZ1 protein. Kind of assay: FIZZ1 protein in BAL by Western blot. The class given is in vivo, mouse. The settings on record: OA/OA-treated mice. The procedure: as §7
Protein expression levels of were examined using Western blot analysis. Briefly, aliquots (100 μg/well) of BAL supernatant and tracheal lysate were loaded onto 4-20% SDS-PAGE gel in an equal volume. Size-fractionated proteins were transferred to nitrocellulose membrane and then blocked with 5% nonfat dried milk in TBS at room temperature for 60 min. […] Immunoreactive bands were detected by chemiluminesence. Protein expression levels were evaluated in relative to expression of β-actin in the same tissue. Quantification of Western blots for phosphorylated signaling proteins was performed using ImageJ and relative band intensity was calculated as % of the intensity of the β-actin protein band.
A general note: A western blot detects proteins with antibodies after separation by electrophoresis.

The subject of another assay is TSM of tracheal rings. Kind of assay: TSM contractile response to CCh in OA-treated mouse model. It counts as in vivo. The settings on record: PBS/PBS 100±6.77, n=6. The procedure:
as §7
Experimental animals were sacrificed by CO2 asphyxiation. Tracheas were surgically excised and cleaned of adherent connective tissue. Each trachea was sectioned into rings 3-4 mm in length and cultured in DMEM containing 1.0 M HEPES, 1.0 M NaOH, 5% of heat-inactivated FBS (Hy-Clone, Logan, Utah), 0.2M glutamine, 1.0 M CaCl2, 2.5 μg/ml fungizone, 5 μg/mL insulin, 100 U/mL penicillin and 100 μg/mL streptomycin) (DMEM-5%) for 24 hours. For in vitro experiments, the tracheal rings were cultured in DMEM in the absence and presence of either 10 or 100 nM recombinant FIZZ1 (Leinco Technologies, USA) for 24 hours. […]
as §3

Assay [7] concerns BAL cells. Nature of the assay: BAL cellular composition in OA-treated mouse model. It counts as in vivo. The settings on record: OA/OA-treated mice vs PBS/PBS and OA/PBS; n=6. The procedure: as §7, §5

For `CC(C)NCC(O)c1ccc(O)c(O)c1` (centres unmarked) [ISO, isoprenaline, reference compound], in assay [1], the “TSM relaxation, level relative to the relaxation by papaverine” value was 50%.
For “lipopolysaccharide [LPS, reference compound]”, the “number of BAL cells” value in the assay with BAL cells [2] is “obvious increase”. In addition, the “smooth muscle layers, histology” value in assay [3] was “clear and histologically intact”. In addition, the “changes in nitrite concentration in MTEC supernatants” value in assay [4] is “not obvious”. Also, the “Maximal tensions (%) of TSM, CCh-evoked, fresh trachea” value in [5] is on record as 108.28±5.44%. The “maximal responses (%) of the tracheal rings, CCh-evoked” value in assay [6] is listed as 96.40±4.31%.

B1: heat inactivated rFIZZ1: FIZZ1 solution heated at 70° C. for 60 min (protein, UniProt Q9EP95 24-111, looked up)
Resistin-like alpha: DETIEIIVENKVKELLANPANYPSTVTKTLSCTSVKTMNRWASCPAGMTATGCACGFACGSWEIQSGDTCNCLCLLVDWTTARCCQLS
modifications: heat inactivated
notes: FIZZ1 solution heated at 70° C. for 60 min
With B1, the figures for the “maximal responses (%) of the tracheal rings, CCh-evoked” value in assay [6] and in [6] (listed as Heat-inactivated FIZZ1) were 100.00±4.77% and “no observable effect”, respectively.

B2: ovalbumin (protein, UniProt P01012 2-386, looked up)
Ovalbumin: GSIGAASMEFCFDVFKELKVHHANENIFYCPIAIMSALAMVYLGAKDSTRTQINKVVRFDKLPGFGDSIEAQCGTSVNVHSSLRDILNQITKPNDVYSFSLASRLYAEERYPILPEYLQCVKELYRGGLEPINFQTAADQARELINSWVESQTNGIIRNVLQPSSVDSQTAMVLVNAIVFKGLWEKAFKDEDTQAMPFRVTEQESKPVQMMYQIGLFRVASMASEKMKILELPFASGTMSMLVLLPDEVSGLEQLESIINFEKLTEWTSSNVMEERKIKVYLPRMKMEEKYNLTSVLMAMGITDVFSSSANLSGISSAESLKISQAVHAAHAEINEAGREVVGSAEAGVDAASVSEEFRADHPFLFCIKHIATNAVLFFGRCVSP
notes: allergen used to sensitize and challenge mice (OA/OA, OA/PBS groups)
Consider B2, for which the “Fc in FIZZ1 mRNA expression in trachea” value in the assay on FIZZ1 mRNA stood at 1000 fold. In the assay on FIZZ1 protein, the “FIZZ1 protein in the BAL” value is “easily detected”. For the same molecule, the “contractile forces (%) of TSM to CCh” value in the assay on TSM of tracheal rings (OA/OA: OA-sensitized and -challenged mice) worked out at 127.75±3.54%. The “contractile forces (%) of TSM to CCh” value with TSM of tracheal rings (OA/PBS: OA-sensitized and PBS-challenged mice) was determined as 105.21±2.71%. In the assay with BAL cells [7], the “number of lymphocytes and eosinophils in the BAL” value is recorded as “markedly increased”; the “number of total BAL cells” value is “large increase”.

The record behind these values is US20090274696A1, “METHODS FOR TREATING INFLAMMATION” (WYETH, priority 2008, published 2009).
